Results from patent US20140056878A1 (ANAPTYSBIO, published 2014).
Substitutions are numbered along the chain they refer to.

B1: APE1142 (antibody, IgG1, V domains shown)
VH: EVQLLESGGGLVQPGGSLRLSCAASGFTFSSYAMTWVRQAPGKGLEWVSVISGSGSTYYADSVKGRFTISRDNSKNTLYLQMNSLRAEDTAVYYCARRGLRYNYFDYWGQGTTLTVSS
VL: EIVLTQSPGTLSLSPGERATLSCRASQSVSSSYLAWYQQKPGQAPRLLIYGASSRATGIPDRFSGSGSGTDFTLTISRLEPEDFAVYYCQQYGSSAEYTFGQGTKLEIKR
B2: APE1224 (antibody, V domains shown)
VH: B1 VH with V50A
VL: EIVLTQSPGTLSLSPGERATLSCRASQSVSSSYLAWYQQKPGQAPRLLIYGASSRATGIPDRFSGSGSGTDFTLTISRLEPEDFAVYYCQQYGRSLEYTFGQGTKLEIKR

How the values were obtained:
[1] = biological target: complement protein C5 (UniProt P01031 19-673; P01031 678-1676); test: cell-based or functional assay
[2] = biological target: T1, C5-C345C (Homo sapiens (Human), UniProt P01031 1530-1676); test: BIACORE screening
T1 construct: C-terminal 147 amino acid residues of the 1648 residue C5 protein; A Myc-tagged or Dylight-650-labelled form was used for FACS selection; In the BIACORE analyses it is named only 'C5-C345C' analyte, and no tag is stated; also called C345C domain of complement C5 protein; C5 domain C5-C345C
T1 sequence (P01031 1530-1676 limits assumed): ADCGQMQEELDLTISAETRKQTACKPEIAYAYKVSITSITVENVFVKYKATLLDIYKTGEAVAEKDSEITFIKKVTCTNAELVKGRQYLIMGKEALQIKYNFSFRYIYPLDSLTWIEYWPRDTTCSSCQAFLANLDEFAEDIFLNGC

Sequence of complement protein C5 (P01031 19-673 limits assumed, chain 1 of 2): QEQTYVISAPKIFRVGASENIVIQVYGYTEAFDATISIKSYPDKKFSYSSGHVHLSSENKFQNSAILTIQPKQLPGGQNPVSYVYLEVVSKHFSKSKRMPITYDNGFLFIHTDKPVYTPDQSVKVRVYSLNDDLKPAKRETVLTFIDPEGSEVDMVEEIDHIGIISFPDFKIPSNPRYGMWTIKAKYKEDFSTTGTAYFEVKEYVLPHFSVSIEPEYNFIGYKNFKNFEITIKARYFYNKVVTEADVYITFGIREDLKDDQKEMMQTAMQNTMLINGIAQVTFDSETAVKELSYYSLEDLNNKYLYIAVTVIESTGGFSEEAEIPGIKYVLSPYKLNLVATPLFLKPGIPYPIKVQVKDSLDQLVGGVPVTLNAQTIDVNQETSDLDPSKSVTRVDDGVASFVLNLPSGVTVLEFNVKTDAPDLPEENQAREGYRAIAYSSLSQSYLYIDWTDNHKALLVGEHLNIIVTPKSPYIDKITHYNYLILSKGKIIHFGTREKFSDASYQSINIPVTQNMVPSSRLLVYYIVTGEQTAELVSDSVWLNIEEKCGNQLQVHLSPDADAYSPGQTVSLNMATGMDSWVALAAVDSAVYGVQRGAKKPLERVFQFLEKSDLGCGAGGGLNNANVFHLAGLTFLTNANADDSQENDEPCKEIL
Sequence of complement protein C5 (P01031 678-1676 limits assumed, chain 2 of 2): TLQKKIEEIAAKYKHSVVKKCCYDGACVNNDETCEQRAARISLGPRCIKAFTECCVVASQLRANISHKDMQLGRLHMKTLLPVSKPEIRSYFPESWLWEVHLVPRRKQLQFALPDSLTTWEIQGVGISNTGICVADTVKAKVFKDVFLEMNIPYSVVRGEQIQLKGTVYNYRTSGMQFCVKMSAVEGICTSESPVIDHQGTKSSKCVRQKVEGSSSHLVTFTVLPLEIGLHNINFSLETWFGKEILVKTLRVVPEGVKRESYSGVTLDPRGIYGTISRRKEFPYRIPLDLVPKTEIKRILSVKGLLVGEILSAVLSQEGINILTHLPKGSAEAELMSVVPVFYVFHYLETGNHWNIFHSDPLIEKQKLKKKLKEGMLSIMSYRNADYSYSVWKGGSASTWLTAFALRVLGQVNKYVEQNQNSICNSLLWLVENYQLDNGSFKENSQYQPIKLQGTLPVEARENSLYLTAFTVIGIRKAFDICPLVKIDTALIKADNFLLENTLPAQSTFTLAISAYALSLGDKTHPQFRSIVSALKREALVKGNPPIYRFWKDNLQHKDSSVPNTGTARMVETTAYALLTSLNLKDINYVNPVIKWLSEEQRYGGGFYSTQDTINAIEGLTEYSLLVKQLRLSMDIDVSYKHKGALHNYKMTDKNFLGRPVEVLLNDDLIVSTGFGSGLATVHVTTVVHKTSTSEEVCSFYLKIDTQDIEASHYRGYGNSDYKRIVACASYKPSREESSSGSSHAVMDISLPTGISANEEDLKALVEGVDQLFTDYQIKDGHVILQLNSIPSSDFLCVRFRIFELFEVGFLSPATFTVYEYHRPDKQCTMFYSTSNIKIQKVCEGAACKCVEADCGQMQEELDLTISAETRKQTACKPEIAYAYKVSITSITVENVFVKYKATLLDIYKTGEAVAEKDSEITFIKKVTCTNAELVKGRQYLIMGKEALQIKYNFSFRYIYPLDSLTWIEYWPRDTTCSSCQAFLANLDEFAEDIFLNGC

Row | Binder | inhibition of hemolysis of antibody-coated sheep erythrocytes (classical complement pathway, 1% normal human serum) [1] [µM] | Kd [2] [nM] | fold improvement in KD over APE777 [2] [fold]
1 | B1 | 1 | – | –
2 | B2 | 1 | 0.2 | 1000
